acyl = not defined here
Tests used:
[1] = target: tissue plasminogen activator (t-PA) (human, UniProt P00750 36-562, limits assumed); assay: cell-based or functional assay
[2] = target: urokinase-type plasminogen activator (u-PA) (human, UniProt P00749 21-431, limits assumed); assay: cell-based or functional assay

Sequence of tissue plasminogen activator (t-PA) (P00750 36-562 limits assumed): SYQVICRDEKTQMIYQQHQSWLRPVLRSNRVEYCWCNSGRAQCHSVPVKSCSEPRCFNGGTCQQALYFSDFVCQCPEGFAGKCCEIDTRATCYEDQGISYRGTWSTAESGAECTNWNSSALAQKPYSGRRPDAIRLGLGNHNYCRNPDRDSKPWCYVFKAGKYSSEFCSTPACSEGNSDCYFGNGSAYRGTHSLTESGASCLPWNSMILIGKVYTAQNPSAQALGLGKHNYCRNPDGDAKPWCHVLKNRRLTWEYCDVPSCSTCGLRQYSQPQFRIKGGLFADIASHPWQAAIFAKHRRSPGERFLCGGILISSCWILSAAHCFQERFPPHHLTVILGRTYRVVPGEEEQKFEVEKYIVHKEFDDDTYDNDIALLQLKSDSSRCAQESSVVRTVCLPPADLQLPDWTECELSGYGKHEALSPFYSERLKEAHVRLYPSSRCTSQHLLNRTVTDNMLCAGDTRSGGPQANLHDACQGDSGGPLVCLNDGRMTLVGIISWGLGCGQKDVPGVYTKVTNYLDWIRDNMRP

B1: peptide SGRS (peptide)
peptide: acyl-SGRS-NH2
modifications: reading uncertain; also: acylated at the amino terminus (acyl group not given here)
- t-PA:u-PA Selectivity [1]: 0.3
- u-PA:t-PA Selectivity [2]: 3.3

B2: peptide SGKS (peptide)
peptide: acyl-SGKS-NH2
modifications: reading uncertain; also: acylated at the amino terminus (acyl group not given here)
- t-PA:u-PA Selectivity [1]: 0.04
- u-PA:t-PA Selectivity [2]: 23

B3: peptide (V) of Table 1, YGRS (peptide)
peptide: acyl-YGRS-NH2
modifications: reading uncertain; also: acylated at the amino terminus (acyl group not given here)
- t-PA:u-PA Selectivity [1]: 17

B4: peptide (IV) of Table 1, LGGSGHYGRSGLE (peptide)
peptide: LGGSGHYGRSGLE
- t-PA:u-PA Selectivity [1]: 21

B5: peptide (VII) of Table 1, FRGRK (peptide)
peptide: acyl-FRGRK-NH2
modifications: reading uncertain; also: acylated at the amino terminus (acyl group not given here)
- t-PA:u-PA Selectivity [1]: 78

B6: peptide SGRSA (peptide)
peptide: acyl-SGRSA-NH2
modifications: reading uncertain; also: acylated at the amino terminus (acyl group not given here)
- t-PA:u-PA Selectivity [1]: 0.05
- u-PA:t-PA Selectivity [2]: 20

B7: peptide GSGKS (peptide)
peptide: acyl-GSGKS-NH2
modifications: reading uncertain; also: acylated at the amino terminus (acyl group not given here)
- t-PA:u-PA Selectivity [1]: 0.008
- u-PA:t-PA Selectivity [2]: 121

B8: peptide LGGSGRKASLSLE (peptide)
peptide: LGGSGRKASLSLE
- t-PA:u-PA Selectivity [1]: 0.032
- u-PA:t-PA Selectivity [2]: 31

B9: peptide LGGSGRSATRDLE (peptide)
peptide: LGGSGRSATRDLE
- t-PA:u-PA Selectivity [1]: 0.06
- u-PA:t-PA Selectivity [2]: 16

B10: peptide LGGSGRNAQVRLE (peptide)
peptide: LGGSGRNAQVRLE
- t-PA:u-PA Selectivity [1]: 0.011
- u-PA:t-PA Selectivity [2]: 89

B11: peptide (II) of Table 1, LGGSGQRGRKALE (peptide)
peptide: LGGSGQRGRKALE
- t-PA:u-PA Selectivity [1]: 47

B12: peptide (III) of Table 1, LGGSGERARGALE (peptide)
peptide: LGGSGERARGALE
- t-PA:u-PA Selectivity [1]: 13

B13: peptide (I), native cleavage sequence from plasminogen (peptide)
peptide: KKSPGRVVGGSVAH
- t-PA:u-PA Selectivity [1]: 0.33
- u-PA:t-PA Selectivity [2]: 3

B14: peptide LGGRGRSANAILE (peptide)
peptide: LGGRGRSANAILE
- t-PA:u-PA Selectivity [1]: 5.2
- u-PA:t-PA Selectivity [2]: 0.019

B15: peptide LGQRGRSANAILE (peptide)
peptide: LGQRGRSANAILE
- t-PA:u-PA Selectivity [1]: 19
- u-PA:t-PA Selectivity [2]: 0.005

B16: peptide LGGYGRSANAILE (peptide)
peptide: LGGYGRSANAILE
- t-PA:u-PA Selectivity [1]: 5.7
- u-PA:t-PA Selectivity [2]: 0.018

B17: peptide LGGSGRSANAILE (peptide)
peptide: LGGSGRSANAILE
- t-PA:u-PA Selectivity [1]: 0.016
- u-PA:t-PA Selectivity [2]: 63

B18: peptide (VI) of Table 1, RGRK (peptide)
peptide: acyl-RGRK-NH2
modifications: reading uncertain; also: acylated at the amino terminus (acyl group not given here)
- t-PA:u-PA Selectivity [1]: 57

Reference: patent publication US20030186329A1 (Scripps Research, published 2003)
